Experimental data taken from patent publication US20260132192A1 (XBIOTECH, published 2026).

Biological target: T1, recombinant human IL-1α (human, UniProt P01583 113-271)
T1 sequence (looked up): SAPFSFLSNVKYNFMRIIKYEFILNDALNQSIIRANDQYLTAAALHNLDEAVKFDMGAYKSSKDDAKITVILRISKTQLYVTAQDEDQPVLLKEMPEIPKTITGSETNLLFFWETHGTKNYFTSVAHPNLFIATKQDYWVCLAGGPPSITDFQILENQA
Assay: cell-based or functional assay

HUVEC-based potency assay; ICAM-1 expression by flow cytometry after hIL-1α stimulation; IC50: 0.0187 µg/mL
B1: human monoclonal antibody designated XIA12 (antibody, V domains shown)
VH: QVQLVQSGAEVKKPGSSVKVSCKASGGRFTNYAILWVRQAPGQGLQWLGGIIPIFDETDHAQDFQDRLTITVDESMTTAYMELSSLRPEDTAIYYCATGSNSYYGLYWGQGTLVTVSS
VL: DIVMTQSPDFLAVSLGERATINCKSSQSVLYSSDNKNYLAWYQQKAGQPPKLLIYWASTRESGVPDRFSGSGSATDFTLTISSLQAEDVAVYYCQQYYSLPITFGQGTRLEIKR
